Measurements: patent publication US20260327578A1, “TRANSGLUTAMINASES AND USES THEREOF” (CURIE CO. INC., priority 2023, published 2026)

Experiments:
[1] = tested on: E. coli (ATCC 8739) / C. albicans (ATCC 10231); test: MIC of permeabilizer co-dosants with and without Tgase variant; format: cell-based
Procedure: E. coli (ATCC 8739) and C. albicans (ATCC 10231) were acquired from the American Type Culture Collection (ATCC) (Manassas, VA) and maintained as −80° C. frozen glycerol stocks.
The following day, the cell density of the saturated cultures was calculated using OD600 and cultures were diluted to 104 to 10^6 CFU/mL in sterile Mueller Hinton broth to generate the inoculum, and 100 μL of the inoculum was combined with 100 μL of serially diluted Tgase variant A3 (SEQ ID NO: 4) at a range of 0.0001-0.05 weight percent. Growth curves were measured by OD600 on a BioTek® Synergy Plate Reader. All test conditions were performed in triplicate. MIC was determined to be […] (0.005% w/v) against E. coli for the enzyme described in SEQ ID NO: 4 using OD600.
For MIC determination of yeast cultures, C. albicans (ATCC 10231) was grown overnight (24 hours) in Sabouraud Dextrose broth at 30° C. The following day, the cell density of the saturated cultures was calculated using OD600 and cultures were diluted to 104 to 10^6 CFU/mL in sterile Sabouraud Dextrose broth media to generate the inoculum, and 100 μL of the inoculum was combined with 100 μL of serially diluted Tgase variant at a range of 0.0001-0.05 weight percent. The cultures were grown overnight at 30° C. and growth curves were measured by OD600 on a BioTek® Synergy Plate Reader. All test conditions were performed in triplicate. MIC was determined to be […] (0.005% w/v) against C. albicans for the enzyme described in SEQ ID NO: 4 using OD600.
Aseptilase activities of Tgase variant A3 (SEQ ID NO: 4) in combination with each of the three permeabilizer co-dosants, polymyxin B, chlorhexidine, and a 10000:4000:1 mixture by weight of sodium hexametaphosphate, phytic acid and chlorhexidine, were tested. […] The experiments were performed as described in Example 5. The co-dosants were added into Tgase variant A3 (SEQ ID NO: 4) solutions at concentrations of 0.125 g/L, 0.05 g/L, and 350 mM, respectively. The results are shown in Table 12 with Tgase concentrations reported within the table at the best MIC.

[2] = Thermal stability at 55 °C, specific activity by colorimetric hydroxamate assay; format: biochemical
Procedure: Tgase activity was measured herein using a colorimetric hydroxamate activity assay (Folk and Cole (1965) J Biol Chemistry 240 (7): 2951-2960). Briefly, the hydroxamate assay uses N-benzyloxycarbonyl-L-glutaminyl-glycine (ZQG) as a low molecular weight amine acceptor substrate and hydroxylamine as an amine donor. In the presence of catalytically active Tgase, the hydroxylamine is incorporated to form Z-glutamylhydroxamate-glycine, which develops a colored complex with iron (III), detectable at 525 nm after incubation at 37° C. for 5-200 minutes. The calibration was performed using L-glutamic acid gamma-monohydroxamate (Millipore® Sigma®) as a standard. One unit of Tgase was defined as the amount of enzyme that catalyzes formation of 1 μmol of the peptide derivative of gamma-glutamylhydroxylamine per minute. Activity of Tgase variants is depicted in Tables 2-4.
A commercially available wild-type Tgase (Ajinimoto®, Activa® TI formulation) formulated at 0.75-1.0% enzyme in maltodextrin was purchased from Amazon.com and dissolved in water at 20% w/v. The concentration of the mature Tgase in the solution was confirmed by high-performance liquid chromatography (HPLC) and the sample was further diluted to 0.1 g/L of enzyme. Following dilution, the enzyme was subjected to the hydroxamate assay as described in Example 4 to determine specific activity. The specific activity of the commercial wild-type Tgase compared to Tgase variant A3 (SEQ ID NO: 4), further comprising an N-terminal methionine, is shown in FIG. 1.
The thermal stability of Tgase variant A3 (SEQ ID NO: 4) compared to the commercial wild-type Tgase was evaluated by incubating the samples at 55° C. and testing the enzyme concentration and activity at various timepoints. Six timepoints were tested: 0, 30, 60, 120, 240, and 480 minutes.
The enzyme concentration was measured by HPLC. The samples were diluted 10-fold in 50 mM phosphate pH 7.4, 100 mM NaCl. The samples were tested by reverse phase using a Zorbax SB300-C8 column with 0.1% trifluoroacetic acid in water (MPA) and 0.08% trifluoroacetic acid in acetonitrile (MPB).
The activity was determined using the colorimetric activity assay described in Example 4A. The specific activity (U/mg) of the samples was calculated using the concentration of each sample as determined per Example 4D (results shown in Table 10).

B1: A3: Tgase variant S2P Q50S Q74A K91H Q124L K151R K152R N282M G283A relative to SEQ ID NO: 2 (protein, UniProt P81453 77-407, looked up, variant S2P Q50S Q74A K91H Q124L K151R K152R N282M G283A)
Protein-glutamine …: DPDDRVTPPAEPLDRMPDPYRPSYGRAETVVNNYIRKWQQVYSHRDGRKSQMTEEQREWLSYGCVGVTWVNSGAYPTNRLAFASFDEDRFHNELKNGRPRSGETRAEFEGRVAKESFDEEKGFLRAREVASVMNRALENAHDESAYLDNLRRELANGNDALRNEDARSPFYSALRNTPSFKERNGGNHDPSRMKAVIYSKHFWSGQDRSSSADKRKYGDPDAFRPAPGTGLVDMSRDRNIPRSPTSPGEGFVNFDYGWFGAQTEADADKTVWTHGNHYHAPMASLGAMHVYESKFRNWSEGYSDFDRGAYVITFIPKSWNTAPDKVKQGWP
For B1, the “Aseptilase activity in combination with permeabilizers” value ([1]; co-dosed with polymyxin B, chlorhexidine, or hexametaphosphate/phytic acid/chlorhexidine) was “further improved by co-dosing with cell membrane permeabilizers”, the “concentration of Tgase at the best MIC” value ([1]; in combination with 10000:4000:1 hexametaphosphate, phytic acid and chlorhexidine) was 200 ppm and the “concentration of Tgase at the best MIC” value ([1]; in combination with Chlorhexidine) was 200 ppm. For the same molecule, the “concentration of Tgase at the best MIC” value ([1]; in combination with Polymyxin B) was 12.5 ppm, the Specific activity ([2]; timepoint 0 min) was 46.0 U/mg and the Specific activity ([2]; timepoint 30 min) was 44.4 U/mg. For the same molecule, the Specific activity ([2]; timepoint 60 min) was 43.3 U/mg, the Specific activity ([2]; timepoint 120 min) was 40.5 U/mg and the Specific activity ([2]; timepoint 240 min) was 38.9 U/mg. The Specific activity ([2]; timepoint 480 min) was 32.1 U/mg and the “portion remaining soluble during the heat treatment” value ([2]; up to 480 min, compared to wild-type Tgase, HPLC) was “greater portion”.
